Publication PMC5972919, “A strategy for L-isoleucine dioxygenase screening and 4-hydroxyisoleucine production by resting cells” (Bioengineered, 2017)

Substrate: CC[C@H](C)[C@H](N)C(=O)O
Test: HPLC of 4-hydroxyisoleucine after precolumn derivatization; Michaelis-Menten fit
Assay type: biochemical, Bacillus thuringiensis
Settings: apparent, L-Ile 0.02 to 5 mM, 10 mM alpha-ketoglutarate, 5 mM FeSO4, 10 mM ascorbic acid, 100 mM Tris-HCl pH 7.0, 30 °C
Excerpt: HPLC of 4-hydroxyisoleucine after precolumn derivatization; Michaelis-Menten fit on IDO (L-isoleucine dioxygenase)

B1: IDO (L-isoleucine dioxygenase) (Bacillus thuringiensis) (protein)
chain: MKMSGFSIEEKVHEFESKGFLEISNEIFLQEEENHRLLTQAQLDYYNLEDDAYGECRAGSYSRYIKYVDSPDYILDNSNDYFQSKEYNYDDGGKVRQFHSINDSFLYNPLIQNIVRFDTEFAFKTNIIDTSKDLIIGLHQVRYKATKERPSFSSPIWLHKDDEPVVFLHLMNLSNTAIGGDNLIANSPREINQFISLKEPLETLVFGQKVFHAVTPLGTECSTEAFRDILLVTFSYKETK
notes: motif His159-X-Asp161-X50-His212
Work on B1 yielded a Km of 0.20 mM, a Vmax of 2.18 µmol/min/mg and a kcat of 0.0727 s⁻¹. It also gave a kcat/Km of 363 M⁻¹ s⁻¹.
